The values that follow come from PMC10979003 (Nature Communications, 2024).

For the test, the target named is T1, 6xHis tagged BCL-xL (UniProt Q07817-1 2-212).
T1 construct: BCL-xL; The cloning section gives BCL-xL only an N-terminal ULP1-cleavable SMT3 tag; also called self-made 6×His tagged BCL-xL; WT BCL-xL; source: self-made; E. coli BL21 (DE3) codon plus
The test is described as follows: AlphaScreen or HTRF; AlphaScreen displacement binding assay: Biotin-Bim or Biotin-Bad (15 nM for WT, 50 nM for mutants), 6xHis BCL-2 (25 nM WT, 50 nM mutants) or BCL-xL (10 nM WT, 50 nM mutants), compounds (753b, WH244) as displacers; anti-6xHis acceptor and streptavidin donor beads; 25 mM HEPES pH 7.5, 150 mM NaCl, 0.1% BSA, 0.005% tween 20; room temperature. Particulars: both partners purified. Background: Bead proximity is the source of the signal in Alpha formats.

No end group written: not given here. *: point of attachment. Biotin = O=C1N[C@H]2[C@H](CS[C@H]2CCCCC(=O)*)N1

T1 sequence (Q07817 2-212): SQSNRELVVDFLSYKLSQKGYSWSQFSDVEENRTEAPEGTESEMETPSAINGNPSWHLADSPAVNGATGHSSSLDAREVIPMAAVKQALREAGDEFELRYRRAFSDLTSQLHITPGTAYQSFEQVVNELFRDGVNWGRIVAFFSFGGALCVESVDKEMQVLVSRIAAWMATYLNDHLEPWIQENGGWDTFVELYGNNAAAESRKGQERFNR

B1: Biotin-tagged Bad (peptide)
peptide: Biotin-LWAAQRYGRELRRMSDEFEGSFKGL
notes: Bad peptide (BH3 stretch); also called Biotin-[residues removed]
With B1, the binding result is on record as “binds”.
